The values below come from patent US20100040635A1.

Assay [1] concerns the target H5 hemagglutinin of influenza A/Vietnam/1203/04 (H5N1) (influenza A virus H5N1 A/Vietnam/1203/04).
Assay [2] concerns the target H5 hemagglutinin of influenza A/Turkey/65596/06 (H5N1) (influenza A virus H5N1 A/Turkey/65596/06). Nature of the assay: cell-based or functional assay.
In assay [3] the target is H5 hemagglutinin of influenza A/Vietnam/1203/04 (H5N1) (influenza A virus H5N1 A/Vietnam/1203/04). Nature of the assay: cell-based or functional assay.
Assay [4] deals with H5 hemagglutinin of influenza A/Indonesia/5/05 (H5N1) (influenza A virus H5N1 A/Indonesia/5/05). Nature of the assay: cell-based or functional assay.
Assay [5] concerns the target H1 hemagglutinin of influenza A/New Caledonia/20/99 (H1N1) (influenza A virus H1N1 A/New Caledonia/20/99). As to the kind of experiment: cell-based or functional assay.

B1: Antibody 2 (antibody, V domains shown)
VH: QVQLVQSGAEVKKPGSSVKVSCKTSGGTFSSYAVTWVRQAPGQGLEWMGGIIGMFGTTNYAQKFQGRVTITADELTSTAYMELSSLRSEDTAVYYCARGSYYYESSLDYWGRGTL
VL: ETTLTQSPATLSVSPGERATLSCRASQSVSRNLAWYQQKPGQAPRLLIYGASSRATGIPDRFSGSGSGTDFTLTISRLEPEDFAVYYCQQYGSSSITFGQGTRLEIKR
Molecule B1 showed a Neutralization (MIC), H5N1 Vietnam 1203 virus, microneutralization in assay [1] of 188 µg/mL. In addition, the Minimum inhibitory concentrations required to neutralize virus in assay [2] is 108 µg/mL; in assay [3], 63 µg/mL; in assay [4], 27 µg/mL.

B2: Antibody 1 (antibody, V domains shown)
VH: QVQLVQSGAEVKKPGSSVRVSCKTSGGTFSSYAVTWVRQAPGQGLEWMGGIIGMFGTTNYAQKFQGRLTITADEMTSTAYMELSSLRSEDTAVYYCARGSYYYETTLDYWGRGTL
VL: ETTLTQSPGTLSLSPGERATLSCRVSQSVSSNYLAWYQQKPGQAPRLLIYGASSRATGIPDRFSGSGSGTDFTLTISRLEPEDFAVYYCQQYGTSPRAFGHGTKVEIKR
Regarding B2, the Minimum inhibitory concentrations required to neutralize virus amounted to 9.3 µg/mL in assay [2], 9 µg/mL in assay [5] and 9.3 µg/mL in assay [4].

B3: Antibody 3 (antibody, V domains shown)
V domain 1: EVQLVQSGAEVKKPGSSVKVSCKTSGGTFSSYAVTWVRQAPGQGLEWMGAIIGMFGTTNYAQKFQGRVTITADELTSTAYMELSSLRSDDTAVYYCARGSYYYESSLDYWGKGTL
V domain 2: QSVLTQPPSVSGAPGQRVTISCGGSRSNIGAGYDVHWYQQFPGTAPKVVIYGNNNRPSGVPDRFSGSKSGTSASLAITGLQAEDEANYYCQSYDTNLGGSIFGGGTQVTVL
In assay [1], B3 yielded a Neutralization (MIC), H5N1 Vietnam 1203 virus, microneutralization of 175 µg/mL. The Minimum inhibitory concentrations required to neutralize virus in assay [2] was 31 µg/mL; in assay [4], 16 µg/mL.

B4: Antibody 4 (antibody, V domains shown)
VH: QVQLQESGPGLVKPSETLSLTCTVSGYSFDSGYYWGWLRQPPGKGLEWIGSIYHSRNTYYNPSLKSRVTISVDTSKNQFSLQLSSVTAADTAVYYCARGTWYSSNLRYWFDPWGKGTL
VL: NFMLTQPHSVSESPGKTVTISCTGSGGNIARNYVQWYQQRPGSAPVTVILEDDKRPSGIPDRFSGSIDRSSNSASLTISGLRTEDEALYYCQSYDDSDLVVFGGGTKLT
Take B4: the Minimum inhibitory concentrations required to neutralize virus in assay [5] and in assay [4] was over 333 µg/mL each time.
